{"source": "the DeepSol protein solubility set"}
{"assay": "soluble on expression in E. coli; label from the status in PepcDB or PDB records"}
{"sequence": "MGSDKIHHHHHHMEELIQKALSSSNKVSSNSLIEKIIPVGGGCIHKAWSIHFQNGKRVFAKSNYIDNINMFKFERECLSVLKRFANESYICVPETLDLISYQNISILFLEWIDLKQCQQNVLGKGLALLHKSSSEWSKKNFGWEEEGFIGSSTQARGWKSNWGEFFVNYRLRPQLLQAKAWGVRVEDYEDVLIYLSSYLNDHQPKTSLVHGDLWSGNCGSTKNGLGSLYDPACYWADREVDISMTKLFGGFNREFYKGYEEIWPLNKFSKDRNDIYNLYHLLNHANIFGGSYKENSLKILKDLRSRV", "soluble on expression in E. coli": "not soluble"}
{"sequence": "MGSDKIHHHHHHMITTDSGEQVEALAPIIISASRSTDIPAFYAKWFFNRLAKGYCVWYNPFNRRKMYVSFERCKAIVFWTKNPKLILPYLHELDRRGIHYYFQFTLNDYVSEGFEPNVPSVTQRVETFRELSEMIGKERVIWRFDPLIMTPSITPRVLLSRIWKIGNLLKGYTDKLVFSFVDVKAYRKVQNNLIKETNCFTKEDVETAEMNATQRQETVEGLVKLREIWASTGWNVTLATCAEDIDLTVYGIEHNRCIDGDLMERVFEEDYELVYYLRTGQLPEPDLFGTFPALPDKRKDLKDKGQRKACGCMISKDIGRYNTCRHFCVYCYANTSRECVQKNAVHYSDDSESLIRS", "soluble on expression in E. coli": "not soluble"}
{"sequence": "MKRVLIFADIFPPAFAPRAAYLTKYLPRFGWEPFVITEKMPTPASQSHGDVFGGFCSDIPVTAIDLSSASFLSQAIRSARLFGELFWEQKEERFYKEAAKAFPSVKFDAVLCLTYRKFPLATACRYAQAHRLPWVADCRDVIEQYSNYDFLPRGKRLPSLLMKWLRHRYISLRNHYLHKADRVVSVSPWHCNLLAEVNPRTELIYNGYDPELFSRGSLPCGKFILSYTGRLLTPEMHDPTLLFEALASEALQEVRKERRIELHWYVDEYSRSILQPFIRQYALKDMCRFFPMVPAVQVPEILRHSSVLLQLGNTEKPGGPHGIVSTKLFESLAMEKPILMVRSDEAIVADIISEAEAGLAAQTTEEVATFLSDQYTRWKAEGDTSLRNPNRNFISTFSREEEAKQYARLLESIVAN", "soluble on expression in E. coli": "not soluble"}
{"sequence": "PKPPYSYIALITMAIRDSAGGRLTLAEINEYLMGKFPFFRGSYTGWRNSVRHNLSLNDCFVKVLRDPSRPWGKDNYWMLNPNSEYTFADGVFRRRRYRLS", "soluble on expression in E. coli": "soluble"}
{"sequence": "GMLKLCGFAASNYYNKVKLALLEKNVPFEEVLAWIGETDTTATPAGKVPYMITESGSLCESEVINEYLEAAYPQTPLLPRDPMQAGKVREIVTFLELYLELTARELYPEAFFGGKVSDNVKERQLKLLSRYVPAFAKLAKFSPYVAGDTFTLADCAAAVHLPLVSSCTKIIYGKDLLADLPVKEYLKTLSERPSVQKVNADRKANTELMLSRNK", "soluble on expression in E. coli": "soluble"}
{"sequence": "GMDELELRIRKAEKLVQDAKKEFEMGLYERCCSTAYYAMFHAAKAMLLGYGRDSKTHRGTIYLIWECREELGLSDDDCSKLSRAFDLREESDYGIYKEVSKDLAIKILKDAEIFVQKAKNAVNKNR", "soluble on expression in E. coli": "soluble"}
{"sequence": "MIIPLVFLIGFAAAGNFGSSSSESCEDGNGGGRPRPGNGGGRPPGNGNGNGNGGGRPTNGGCDAGWRRFNRPNGGWCVRVFGARMTQADAQIQCQSYGATLSSLQNMEEALQINNMALSVIKANTGSVWIGAKRTTACLKQWLWTNGCGRQNSFAWTDGSATGVAGFVWDNLQPDNDELKQPCAVMLAARAAVTWGGKFWQPAMLDDNNCMFDLEGKHPRSVYGYVCGKNSRA", "soluble on expression in E. coli": "not soluble"}
{"sequence": "VSMDELDPHVARALTLAARFQSALDGTLNQMNNGSFRATDEAETVEVTINGHQWLTGLRIEDGLLKKLGAEAVAQRVNEALHNAQAAASAYNDAAGEQLTAALSAMSRAMNEGMA", "soluble on expression in E. coli": "soluble"}
{"sequence": "MADSTATSTPRAVPSHEDRPVYVIGGGPGGLAAAHALRAQGVRAVVLEKSDRVGASWRRHYDRLHLHTTRRLSALPGLPMPRSFGRWVSRDNVVRYLEKYVEHHQLEIVTGVEVSRVEPAPDGTGWLLHATGGRELTGSAVVVATGHNHTPHLPDWPGRDAYTGELLHAGDYRNATPHAGRDVLVVGVGNTGAEIAVDLVEGGASRVRLAVRTAPHIVRRSTAGWAAQFTGIVVRRLPVRLVDLLAGPMARLSVPDLSAQGLPRPDTGLYSRVREGSIPVQDVGLIDAVRKGRVEIVAAVDGFEDGKVVLADGNRIGPDVVIAATGYARALEDLVGHLDVLDGRGRPTVHGARTPRTAPGLYFTGFTNPISGMFRELAIDAEKIAKAVAKALARTTARTPALEHHHHHH", "soluble on expression in E. coli": "soluble"}
{"sequence": "MASWSHPQFEKGASTSLYKKAGLMDSQRSTLVHWFRKGLRLHDNPALSHIFTAANAAPGRYFVRPIFILDPGILDWMQVGANRWRFLQQTLEDLDNQLRKLNSRLFVVRGKPAEVFPRIFKSWRVEMLTFETDIEPYSVTRDAAVQKLAKAEGVRVETHCSHTIYNPELVIAKNLGKAPITYQKFLGIVEQLKVPKVLGVPEKLKNMPTPPKDEVEQKDSAAYDCPTMKQLVKRPEELGPNKFPGGETEALRRMEESLKDEIWVARFEKPNTAPNSLEPSTTVLSPYLKFGCLSARLFNQKLKEIIKRQPKHSQPPVSLIGQLMWREFYYTVAAAEPNFDRMLGNVYCMQIPWQEHPDHLEAWTHGRTGYPFIDAIMRQLRQEGWIHNLARHAVACFLTRGDLWISWEEGQRVFEQLLLDQDWALNAGNWMWLSASAFFHQYFRVYSPVAFGKKTDPQGHYIRKYVPELSKYPAGCIYEPWKASLVDQRAYGCVLGTDYPHRIVKHEVVHKENIKRMGAAYKVNREVRTGKEEESSFEEKSET", "soluble on expression in E. coli": "soluble"}
{"sequence": "MIINNVKLVLENEVVNGSLEMQDGEIRAFAESQSRLPEAMDGEGGWLLPGLIELHTDNLDKFFTPRPKVDWPAHSAMSSHDALMVASGITTVLDAVAIGDVRDGGDRLENLEKMINAIEETQKRGVNRAEHRLHLRCELPHNTTLPLFEKLVQREPVTLVSLMDHSPGQRQFANREKYREYYQGKYSLTDAQMQQYEEEQLALAARWSQPNRESIAAMCRARQIALASHDDATHAHVAESHQLGSVIAEFPTTFEAAEASRKHGMNVLMGAPNIVRGGSHSGNVAASELAQLGLLDILSSDYYPASLLDAAFRVADDQSNRFTLPQAVKLVTKNPAQALNLQDRGVIGEGKRADLVLAHRKGNHIHIDHVWRQGKRVF", "soluble on expression in E. coli": "not soluble"}
{"sequence": "SADSEADKPLRKISAAFKKLAIIVNSPNPEVPVTQFSHACSLVSPLFGCLGIAFKFAEMDYVAKVDDLVRASSSISTLVVMMDKDIEADCVRKAGSHTRNLLRVKRGLDMVKVLFEQIIASEGDNSLKDPATKSYAQVFAPHHGWAIRKAVSLGMYALPTRAHLLNMLKEDEAAAKIHMQSYVNSSAPLITYLDNLFLSKQLGIDW", "soluble on expression in E. coli": "soluble"}
{"sequence": "VPGVWSPPCPTTPRVGVVAALVAATLTGCGSGDSTVAKTPEATPSLSTAHPAPPSSEPSPPSATAAPPSNHSAAPVDPCAVNLASPTIAKVVSELPRDPRSEQPWNPEPLAGNYNECAQLSAVVIKANTNAGNPTTRAVMFHLGKYIPQGVPDTYGFTGIDTSQCTGDTVALTYASGIGLNNVVKFRWNGGGVELIGNTTGG", "soluble on expression in E. coli": "soluble"}
{"sequence": "MAGSSEEAPDYGRGVVIMDDWPGYDLNLFTYPQHYYGDLEYVLIPHGIIVDRIERLAKDIMKDIGYSDIMVLCVLKGGYKFCADLVEHLKNISRNSDRFVSMKVDFIRLKSYRNDQSMGEMQIIGGDDLSTLAGKNVLIVEDVVGTGRTMKALLSNIEKYKPNMIKVASLLVKRTSRSDGFRPDYAGFEIPNLFVVGYALDYNEYFRDLNHICVINEHGKEKYRV", "soluble on expression in E. coli": "soluble"}
{"sequence": "MLQYRIIVDGRVQGVGFRYFVQMEADKRKLAGWVKNRDDGRVEILAEGPENALQSFVEAVKNGSPFSKVTDISVTESRSLEGHHRFSIVYS", "soluble on expression in E. coli": "soluble"}
{"sequence": "EIGLLLAILLFMKRVTENTRITVATGRLDLTQTGEIAHHDEVLDIPKGVEVYEIEGPFFFGIANRFEEIMNTLGDHPDVRIIRMRHVPFMDSTGMHNLENLIKMSRKEGVSIVLSGVRKDVHEELATAGIVELLGEENVCADIQAALRQAQAIAQGA", "soluble on expression in E. coli": "not soluble"}
{"sequence": "MKNFEWNTSFSFAYMNNEVKHLYGEYENVLDANGNIVGSKEKDEYGKWWIGRPISAIWDYRVTGIWQPDEIEEAKKVGQLPGDPKVANNYTEDDIISSDGSRIPVYNDKDKEFLGQTTSPYILSMRNNFTILKNIDFSFNLYSCIGSKMKDTSYLNQVNASEIDYGLNQSIKEYWTPEHQSNTYARLNSKGPTGVNSPARYIDRSFIRLENISIGYTFPKSIVSRWGLSNLKVYGTIRNAALWTMSHWKLNDIETGGLAPRTYSLGINVTL", "soluble on expression in E. coli": "not soluble"}
{"sequence": "MKGRIELGDVTPHNIKQLKRLNQVIFPVSYNDKFYKDVLEVGELAKLAYFNDIAVGAVCCRVDHSQNQKRLYIMTLGCLAPYRRLGIGTKMLNHVLNICGWMDGWMDGWMDGRASEIVEIPCLFLGYQFPKQSKSKLRSLVLSTFTLMDKLQRALAKRRGHK", "soluble on expression in E. coli": "not soluble"}
{"sequence": "MTDQATPNLPSRDFDSTAAFYERLGFGIVFRDAGWMILQRGDLMLEFFAHPGLDPLASWFSCCLRLDDLAEFYRQCKSVGIQETSSGYPRIHAPELQGWGGTMAALVDPDGTLLRLIQNELLAGIS", "soluble on expression in E. coli": "soluble"}
{"sequence": "MGSDKIHHHHHHMEEINKYIQNSSETGGEIYNLIEELFPICRSITGNGVRKTMDIIRKHIPLEIHEVKSGTKVFDWTVPKEWNIKDAYVRNSKGEKVIDFKENNLHVMSYSVPVHKTMTLDELKPYLHTIPGNKDRIPYLTSYYKENWGFSLTQNKFDELCDDDYEVVIDSSLEDGSLTYGEYYIRGELEEEILLTTYTCHPSMCNDNLSGVALITFIAKALSKLKTKYSYRFLFAPETIGSITWLSRNEDKLKNIKMGLVATCVGDAGIKNYKRTKFGDAEIDKIVEKVLMHCGSEYYVADFFPWGSDERQFSSPGINLSVGSLMRSCYGFDGYHTSADNLCYMNKDGLADSYKTYLEVIYTIENNRTYLNLNPKCEPQLGKRGIYRMIGGGSDYPFDEFAMFWVLNMSDGKNSLLDIAYKSGMEFRRIKYAADALYRVELLKLV", "soluble on expression in E. coli": "not soluble"}
{"sequence": "MQETMLDLRTVYECNRCLGCKTLHPQVGIINLENPSLEEDAVKFEFYAVLLIEDCPGGCCCCGRKYYDYSNATMVFLTPGEIFRMSKENTLPDKGYLLAFHPDLLFRTSLKNHIKNYTFFHYRKEEALHLSRRETEKVTCCLSNIEDELHHPIDTHSSIILSRHIELLLDYCTRYYERQFITRENKNKALLENMERLFVEYIASGRLQGGKLPTSGYMAGELDLSVAYFDDLLKFETGKTLEEYLQLKRLDIARHMLLQDGHTPAAVARKLGYPNVQCFSVLFKKITGVAPSDYRLSQN", "soluble on expression in E. coli": "not soluble"}
{"sequence": "MTIYPKLILDALATVRYPGTGKNLVEAGMVEDNIRIEGMKVSFSLIFEKPTDPFMKSVIKAAETAILTHVGKEVEIVGNISVKTVQAARPEVGKLLPHVKNIIGISSGKGGVGKSTVSANLAVALAKLGYKVGLLDADVFGPSMPKMFQVEDARPYAEKIDGRDMIIPVEKYGVKLLSIGFFVDPDQATLWRGGMASNALKQLIGDAAWGDLDYFLIDLPPGTSDIHLTVVQTLALTGAVVVSTPQAVALADARKGINMFTNDKVNVPILGLVENMAWFTPAELPENKYYLFGKEGAKKLAEEMNVPLLGQIPIVQSICEGGDKGTPVALDENTVTGRAFLALAASVVRQVDKRNVEMAPTKIVELHKLEHHHHHH", "soluble on expression in E. coli": "soluble"}
{"sequence": "MAHHHHHHMTKVWMPWAYQALLAYAHSGAAHGQANLWLKGQTSTPLQRICDPVPNLLISQSSQGGQRALWLLHRPESVLGLVVSPQWQGESGDHELCDASVVSKRKIVRVMKHLHSLPFRVAGSSPLRPPMVVHKNHLVGWRIDGKAAPLYAHTLDQLAKLKPTQFKTIEPKNAFICRTYYEWDNWKEVSMEPGWTWHHVDEEIANNILDGTLTFDGLRATATDTP", "soluble on expression in E. coli": "not soluble"}
